Measured values reported in patent US10206896B2, “Method of treating delayed healing of a wound associated with diabetes” (KUWAIT UNIVERSITY, priority 2014, dated 2019).

Legend:
[1] = tested on: control fibroblasts (CFs); assay: In vitro scratch wound (cell migration) in control fibroblasts; format: cell-based, Wistar rat; conditions: 24 hrs post-injury
Protocol: (§1) Cell culture and HP treatment. […] Assessment of key fibroblast functions essential for wound healing. To assess cell proliferation, fibroblasts were seeded into a 96-well plate at a density of 1×10^4 per well and were allowed to adhere overnight in DMEM medium supplemented with 10% FCS. After arrest by incubation in serum-free medium for 24 hours, the cells were exposed to growth factors, and the incorporation of bromodeoxyuridine (BrdU) into DNA was determined using the manufacturer's protocol (Roche Diagnostics). Similarly, for the in vitro wound (migration) experiments, cultured fibroblasts were grown in six-well plates until they reached confluence. The medium was removed, the cells were washed with PBS 3× before culturing was continued in serum-free DMEM containing 0.5% BSA for an additional 24 hours. […] The rate of wound healing was quantified as described in the literature […] Caveolin-1 protein expression and PDGF-induced phosphorylation of Akt (20 min) and ERK (10 min) in 24-hr serum starved fibroblasts were determined using a Western-blotting-based technique. A proliferation index encompassing BrdU incorporation into DNA and cell cycle progression was evaluated in response to various growth factors (e.g., IGF, 50 ng; PDGF, 1 nM; EGF, 100 ng) in 24-hr serum starved fibroblast. […]

[2] = tested on: control fibroblasts (CFs); assay: BrdU incorporation into DNA (cell proliferation) in control fibroblasts; format: cell-based, Wistar rat; conditions: 24-hr serum starved CFs, vs starved cells; dose providing the maximum response (IGF 50 ng, PDGF 1 nM, EGF 100 ng)
Protocol: as §1

B1: EGF: mitotic growth factor (protein, UniProt P01133 23-1207, looked up)
Pro-epidermal growth factor: PQHWSCPEGTLAGNGNSTCVGPAPFLIFSHGNSIFRIDTEGTNYEQLVVDAGVSVIMDFHYNEKRIYWVDLERQLLQRVFLNGSRQERVCNIEKNVSGMAINWINEEVIWSNQQEGIITVTDMKGNNSHILLSALKYPANVAVDPVERFIFWSSEVAGSLYRADLDGVGVKALLETSEKITAVSLDVLDKRLFWIQYNREGSNSLICSCDYDGGSVHISKHPTQHNLFAMSLFGDRIFYSTWKMKTIWIANKHTGKDMVRINLHSSFVPLGELKVVHPLAQPKAEDDTWEPEQKLCKLRKGNCSSTVCGQDLQSHLCMCAEGYALSRDRKYCEDVNECAFWNHGCTLGCKNTPGSYYCTCPVGFVLLPDGKRCHQLVSCPRNVSECSHDCVLTSEGPLCFCPEGSVLERDGKTCSGCSSPDNGGCSQLCVPLSPVSWECDCFPGYDLQLDEKSCAASGPQPFLLFANSQDIRHMHFDGTDYGTLLSQQMGMVYALDHDPVENKIYFAHTALKWIERANMDGSQRERLIEEGVDVPEGLAVDWIGRRFYWTDRGKSLIGRSDLNGKRSKIITKENISQPRGIAVHPMAKRLFWTDTGINPRIESSSLQGLGRLVIASSDLIWPSGITIDFLTDKLYWCDAKQSVIEMANLDGSKRRRLTQNDVGHPFAVAVFEDYVWFSDWAMPSVMRVNKRTGKDRVRLQGSMLKPSSLVVVHPLAKPGADPCLYQNGGCEHICKKRLGTAWCSCREGFMKASDGKTCLALDGHQLLAGGEVDLKNQVTPLDILSKTRVSEDNITESQHMLVAEIMVSDQDDCAPVGCSMYARCISEGEDATCQCLKGFAGDGKLCSDIDECEMGVPVCPPASSKCINTEGGYVCRCSEGYQGDGIHCLDIDECQLGEHSCGENASCTNTEGGYTCMCAGRLSEPGLICPDSTPPPHLREDDHHYSVRNSDSECPLSHDGYCLHDGVCMYIEALDKYACNCVVGYIGERCQYRDLKWWELRHAGHGQQQKVIVVAVCVVVLVMLLLLSLWGAHYYRTQKLLSKNPKNPYEESSRDVRSRRPADTEDGMSSCPQPWFVVIKEHQDLKNGGQPVAGEDGQAADGSMQPTSWRQEPQLCGMGTEQGCWIPVSSDKGSCPQVMERSFHMPSYGTQTLEGGVEKPHSLLSANPLWQQRALDPPHQMELTQ
modifications: Pro-epidermal growth factor
Question: What does the source list for B1?
Answer: number of cells that migrated into the cell-free wound zone [1]: markedly increased; increase of proliferation rate (BrdU incorporation) [2]: ~7.1 fold
